Measured values: patent US20140178364A1

Biological target: interleukin 3 receptor α (IL-3Rα) chain (human) (UniProt P26951)
Experiment: cell-based or functional assay

UniProt P26951, sequence (P26951 20-378): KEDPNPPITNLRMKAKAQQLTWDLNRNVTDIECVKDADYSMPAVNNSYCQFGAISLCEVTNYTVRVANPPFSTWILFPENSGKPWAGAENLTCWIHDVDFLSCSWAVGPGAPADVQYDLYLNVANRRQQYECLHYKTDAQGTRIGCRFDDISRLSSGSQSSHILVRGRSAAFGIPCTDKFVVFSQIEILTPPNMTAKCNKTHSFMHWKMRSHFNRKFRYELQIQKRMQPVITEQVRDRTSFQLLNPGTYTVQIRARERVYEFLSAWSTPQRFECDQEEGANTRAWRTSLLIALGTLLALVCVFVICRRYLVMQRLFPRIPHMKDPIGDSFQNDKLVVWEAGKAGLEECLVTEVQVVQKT

pDCs (% of total cells remaining in culture), 4 h, 10 µg/ml antibody on human PBMC (% of total cells): 0.1 | pDCs (% of total cells remaining in culture), 24 h, 10 µg/ml antibody on human PBMC (% of total cells): 0.02 | pDCs (% of total cells remaining in culture), 48 h, 10 µg/ml antibody on human PBMC (% of total cells): 0.005
Substance: chimeric version of 7G3 with a human IgG1 constant domain (ch7G3) (antibody)
